Measured values published in paper PMC5389416 (Journal of molecular biology, 2017).

Columns and labels:
Assay in all cases: HDX-MS
[1] = target: T1, Murine N-terminal hexahistidine-p50(39-350) (mouse, UniProt P25799 39-350)
T1 sequence (looked up): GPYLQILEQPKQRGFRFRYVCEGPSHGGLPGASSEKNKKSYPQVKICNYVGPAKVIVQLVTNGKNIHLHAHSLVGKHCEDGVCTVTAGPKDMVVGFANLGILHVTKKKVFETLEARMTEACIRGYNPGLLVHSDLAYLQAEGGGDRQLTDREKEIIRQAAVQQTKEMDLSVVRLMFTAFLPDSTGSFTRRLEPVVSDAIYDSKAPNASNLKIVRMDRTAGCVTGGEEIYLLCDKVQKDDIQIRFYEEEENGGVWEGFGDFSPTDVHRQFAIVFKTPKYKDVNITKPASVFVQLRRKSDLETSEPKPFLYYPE

[2] = target: Murine dimerization domain p50(248-350)/RelA(190-321) (mouse, UniProt P25799 248-350; Q04207 190-321)
Chain of Murine dimerization domain p50(248-350)/RelA(190-321) (Q04207 190-321, one chain of several): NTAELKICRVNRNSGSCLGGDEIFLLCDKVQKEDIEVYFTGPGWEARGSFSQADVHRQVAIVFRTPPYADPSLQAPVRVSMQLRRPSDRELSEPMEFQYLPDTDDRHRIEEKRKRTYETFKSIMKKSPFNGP

Murine RelA(19-321) = Murine RelA(19-321) (mouse, UniProt Q04207 19-321)
Chain of Murine RelA(19-321) (Q04207 19-321): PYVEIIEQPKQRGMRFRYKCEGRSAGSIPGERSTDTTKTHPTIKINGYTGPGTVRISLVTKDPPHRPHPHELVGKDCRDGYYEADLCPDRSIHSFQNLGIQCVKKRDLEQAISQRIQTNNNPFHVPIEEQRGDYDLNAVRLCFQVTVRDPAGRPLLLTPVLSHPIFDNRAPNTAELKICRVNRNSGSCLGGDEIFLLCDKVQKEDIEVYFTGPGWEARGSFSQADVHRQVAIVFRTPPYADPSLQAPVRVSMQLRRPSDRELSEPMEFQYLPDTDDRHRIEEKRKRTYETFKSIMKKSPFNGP

Measured: binding result

B1: Homo sapiens IκBα(67-287) (domain or fragment, human, UniProt P25963 67-287, looked up)
chain: KQQLTEDGDSFLHLAIIHEEKALTMEVIRQVKGDLAFLNFQNNLQQTPLHLAVITNQPEIAEALLGAGCDPELRDFRGNTPLHLACEQGCLASVGVLTQSCTTPHLHSILKATNYNGHTCLHLASIHGYLGIVELLVSLGADVNAQEPCNGRTALHLAVDLQNPDLVSLLLKCGADVNRVTYQGYSPYQLTWGRPSTRIQQQLGQLTLENLQMLPESEDEE
binds: [1] | [2] | Murine RelA(19-321)
